Results: patent US20020035246, “SMAD-interacting polypeptides and their use” (published 2002)

Biological target: T1, SIP1CZF (C-terminal zinc finger cluster of SIP1) (Mus musculus, UniProt Q9R0G7 SEQ:728-805)
T1 sequence: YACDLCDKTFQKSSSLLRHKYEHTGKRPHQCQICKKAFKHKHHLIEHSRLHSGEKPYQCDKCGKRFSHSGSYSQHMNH
Experiment: EMSA; competed by excess unlabeled self
Settings: tags: GST fusion, E. coli; label: 32P

B1: Brachyury binding site (dsDNA)
DNA 1: TGACACCTAGGTGTGAATT
DNA 2: AATTCACACCTAGGTGTCA
  binding result: binds
